The RNAGym collection of RNA variant scans (doi:10.1073/pnas.2313332121)

B1: TPR t1 (parent)
chain: GACCAAUCUGCCCUCAGAGCUCGAGAACAUCUUCGGAUGCAGAGGAGGCAGGCUUCGGUGGCGCGAUAGCGCCAACGUCCUCAACCUCCAAUGCAUCCCACCACAUGAUGAUGCCUGAAGAGCCUUGGUUUUUUG

Variants of: B1
Experiment: polymerase ribozyme fitness, log enrichment relative to wild type (log ratio); higher = more active; in vitro selection for triplet polymerase activity
Procedure, shortened: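 Libraries of mutants in each subunit of a heterodimeric triplet polymerase ribozyme were generated by PCR and transcribed. In triplicate, each went through one in vitro selection round: annealing with biotinylated primer, partner subunit and triplets; frozen incubation at −7 °C; gel excision of extended constructs; streptavidin-bead capture; RT-PCR. Fitness, taken from Illumina sequencing of input and output libraries, is the logarithm of a genotype's enrichment over wild-type enrichment, averaged across replicates with inverse-variance weights. The logarithm is base 2, and genotypes needed ≥10 input reads and ≥1 read per output to be kept.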

Variant | polymerase ribozyme fitness (log ratio)
G48U A50G G58C G117U G122A | -4.46
G48U A84C C114U U116G U132A | -7.04
G48U A121U | 0.519
G48U C49G | -0.587
G48U C49G G63U | -1.73
G48U C49U C72A C73A U131C | -2.61
G48U C49U G71C C86A | -2.67
G48U C56G C64U C101A | -2.95
G48U C56G C80G | -3.4
G48U C62A | -1.81
G48U C62G | -3.39
G48U C62G A91U C123U U125A | -5.93
G48U C62U A84C C115A | -1.79
G48U C64U G120A C123U | 0.28
G48U C72A | -0.467
G48U C72U C73A G127A G135C | -1.64
G48U C79A U112A | -2.84
G48U C82U | -1.32
G48U C88A A91C | -2.5
G48U C89A | -1.52
G48U C99U | -3.34

Variant | polymerase ribozyme fitness (log ratio)
G48U C123A U126A | -2.05
G48U G57C U96A | -1.49
G48U G58U G60U C82G | 0.276
G48U G63U C72U C86A A91C | -5.91
G48U G69A G135U | -5.98
G48U G69U G135A | -1.62
G48U G93A | -0.946
G48U G107U A111C C123A | -5.41
G48U G110U | -2.84
G48U G113A | -1.18
G48U G117C | -4.06
G48U G120U | -0.428
G48U U54C C101U U130G | -1.13
G48U U54C G71U U116C G122U | -2.51
G48U U54G G58C U129A | -2.45
G48U U55G G61U | -0.0419
G48U U59A U116C C124U | -0.336
G48U U87G C115G | -0.14
G48U U92A | -3.38
G48U U92C G120A G127C U134G | -1.91
G48U U96C U116A A121U | -1.06

Variant | polymerase ribozyme fitness (log ratio)
G48U U109C | -4.94
C49A A50C | -0.838
C49A A66C U87A | -1.04
C49A A83C | -1.24
C49A A90C | -1.35
C49A A90U | -0.956
C49A A91C C97G C99U G113A | -7.59
C49A A91C G127A | -3.35
C49A A91G | -1.63
C49A A103C | -5.44
C49A C53A C86A U112G G128A | -3.85
C49A C53A U116C | -1.16
C49A C56A G63A A75U A83C G113U C123G G127A | -5.69
C49A C56A U130C | -0.746
C49A C64U C123U | 0.702
C49A C64U U129C U133C | -0.175
C49A C72G | -0.887
C49A C72U U109C U112A A121C | -6.03
C49A C73A C88U A91U C124U | -0.744
C49A C73A G93U | -1.28
C49A C73U C88U C94U C123U U132G G135U | -1.74

Variant | polymerase ribozyme fitness (log ratio)
C49A C79G A103G U112G C114U U116C | -7.2
C49A C82A | -1.17
C49A C85A G93C U106A | -1.01
C49A C94U | 0.159
C49A C101G C115A G120A | -2.2
C49A C102A A121U G122U U133C | -0.655
C49A C124U | 0.812
C49A G51C A100C U132A | -5.52
C49A G52C G60A U112G G127C | -2.8
C49A G52C U96C | -0.622
C49A G52U G71C | -1.75
C49A G57A G110C | -6.31
C49A G60C G127A U131A | -3.76
C49A G61A G127C G135C | -0.458
C49A G63U G65C G120C | -6.43
C49A G63U G117A | -3.12
C49A G69U U81A C89A G93U C115G C123G | -2.93
C49A G71U | -0.754
C49A G71U U78A G120C | 0.393
C49A G93C U112A | 0.173
C49A G113A | -0.955
